The values that follow come from patent US20160264653A1 (published 2016).

Some results are limits rather than exact numbers.

The target in experiment [1] is T1, human ephrin-A4-His (UniProt P52798 26-170).
T1 chain: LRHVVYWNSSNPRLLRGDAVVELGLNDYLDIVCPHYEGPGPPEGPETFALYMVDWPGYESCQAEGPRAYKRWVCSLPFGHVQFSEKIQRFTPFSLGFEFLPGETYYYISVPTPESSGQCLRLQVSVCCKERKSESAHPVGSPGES
Put plainly: label-free interaction analysis.

Experiment [2] addresses T2, mouse ephrin-A4 homolog (recombinantly expressed, monomeric) (mouse, UniProt O08542 26-175).
T2 chain: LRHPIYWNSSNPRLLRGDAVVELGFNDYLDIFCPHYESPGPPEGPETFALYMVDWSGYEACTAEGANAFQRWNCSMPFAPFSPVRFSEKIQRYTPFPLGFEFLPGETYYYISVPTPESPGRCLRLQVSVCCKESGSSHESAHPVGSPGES
Put plainly: label-free interaction analysis.

Experiment [3] deals with T1, human ephrin-A4-His. Put plainly: Biacore. On the technique in general: In SPR one partner is held on a chip, and binding of the other changes the refractive index at the surface.
The target of experiment [4] is T1, human ephrin-A4-His. Description: ForteBIO. In general terms: Biolayer interferometry detects binding as a change in optical thickness at a sensor tip.
In experiment [5] the target is T3, hEFNA4-Fc (human, UniProt P01857 100-330 = IgG part). Put plainly: cell surface binding inhibition (flow cytometry); 0.1 ug/ml hEphrinA4-Fc. For orientation: Flow cytometry measures light scatter and fluorescence of single cells or particles in a stream.
Experiment [6] has as its target T4, mEFNA4-Fc (mouse;human, UniProt O08542 26-176; P01857 100-330 = IgG part). Description: cell surface binding inhibition (flow cytometry); 0.1 ug/ml mEphrinA4-Fc.
Experiment [7] addresses T3, hEFNA4-Fc. Put plainly: cell surface binding inhibition (flow cytometry); 1.0 ug/ml hEphrinA4-Fc.
Experiment [8] has as its target T4, mEFNA4-Fc. Description: cell surface binding inhibition (flow cytometry); 1.0 ug/ml mEphrinA4-Fc.

B1: hSC4.22 (antibody, V domains shown)
VH: QVQLVQSGAEVKKPGASVKVSCKASGYTFTGYYIHWVRQAPGQGLEWMGWIYPGNFNTKYNERFKGRVTMTTDTSTSTAYMELRSLRSDDTAVYYCAREDGSPYYAMDYWGQGTSVTVSS
VL: DIVMTQTPLSLSVTPGQPASISCRSSQSLVHSNGNTFLYWYLQKPGQSPQLLIYRVSNRFSGVPDRFSGSGSGTDFTLKISRVEAEDVGVYYCFQATHVPWTFGGGTKVEIK
As to B1, the dissociation constant Kd (in general, a measure of binding affinity in units of concentration) is 3.8 nM in experiment [1] and more than 100 nM in experiment [2].

B2: SC4.22 (antibody, V domains shown)
VH: QIQLQQSGPELVKPGASVKISCKASGYTFTGYYIHWVKQRPGQGLEWIGWIYPGNFNTKYNERFKGMATLTVDTSSSTAYMQLSSLTSEDSAVYLCAREDGSPYYAMDYWGQGTSVTVSS
VL: DVVMTQTPLSLPVSLGDQASISCRSSQSLVHSNGNTFLYWYLQKPGQSPKLLIYRVSNRFSGVPDRFSGSGSGTDFTLKISRVEAEDLGVYFCFQATHVPWTFGGGTKLEIK
B2: in experiment [3], the Kd is 3.1 nM.

B3: SC4.22 (Murine mAb) (antibody, V domains shown)
VH: QIQLQQSGPELVKPGASVKISCKASGYTFTGYYIHWVKQRPGQGLEWIGWIYPGNFNTKYNERFKGMATLTVDTSSSTAYMQLSSLTSEDSAVYLCAREDGSPYYAMDYWGQGTSVTVSS
VL: DVVMTQTPLSLPVSLGDQASISCRSSQSLVHSNGNTFLYWYLQKPGQSPKLLIYRVSNRFSGVPDRFSGSGSGTDFTLKISRVEAEDLGVYFCFQATHVPWTFGGGTKLEIK
B3 gave a dissociation constant (Kd) in experiment [1] of 3.1 nM.

B4: SC4.2 (antibody, V domains shown)
VH: QVQLQQSGAELVRPGTSVTLSCKASGYTFTDYEMHWVKQTPVLGLEWIGAFDPETGNTVYNQKFKGKATLTADKSPNTAYMELISLTSEDSAVYYCARGYPAWFGYWGQGTLVTVSA
VL: DVVMTQIPLSLPVTLGDQASISCRSSQSLAHTNGNTYLHWYLQKPGQSPKLLIYKVSNRFSGVPDRFSGSGSGTDFTLKISRVEAEDLGVYFCSQDTHVPPTFGGGTKLEMK
In turn, B4 displayed a Kd in experiment [4] of 20 nM.

B5: hSC4.15 (antibody, V domains shown)
VH: EVQLVESGGGLVKPGGSLRLSCAASGFTFSTYGMSWVRQAPGKGLEWVATISSGGTYTYYPDSVKGRFKISRDNAKNSLYLQMNSLRAEDTAVYYCTRHDPNDGYYFLFAYWGQGTLVTVSS
VL: EIVLTQSPGTLSLSPGERATLSCKASQSVGNNVAWYQQKPGQAPRLLIYYASNRYTGIPDRFSGSGSGTDFTLTISRLEPEDFAVYYCQQHYSSPLTFGAGTKLEIK
Regarding B5, the values for the Kd in experiment [1] and in experiment [2] were 4.8 nM and 3.4 nM, respectively.

B6: SC4.5 (antibody, V domains shown)
VH: QVQLKQSGPGLVAPSQSLSITCTVSGFSLTTYGVDWVRQSPGKGLEWLGVIWGGGSTNYNSALKSRLSISKDNSKSQVFLKMNSLQTDDTAMYYCASDWAYWGQGTLVTVSA
VL: DIVMTQSQKFMSTSVGDRVTVTCKASQNVGTNVAWFQQKSGQSPKPLIHSASYRYSGVPDRFTGSGSGTDFTLTITNVQSEDLVAYFCQQYKRYPYTFGGGTKLEIKR
B6: the dissociation constant Kd in experiment [3] was found to be 0.3 nM.

B7: E15.3 Ab (antibody, V domains shown)
VH: EVQVVESGGDLVKPGGSLKLSCAASGFTFSTYGMSWVRQTPDKRLEWVATISSGGTYTYYPDSVKGRFKISRDNAKDTLYLQMSSLKSEDTAMYYCTRHDPNDGYYFLFAYWGQGTLVIVSA
VL: SIGRTQIPKFLPVSAGDRVTMTCKASQSVGNNVAWYQQKAGQSPKLLIYYASNRYTGVPDRFTGSGSGTDFTFTISSVQVEDLAVYFCQQHYSSPLTFGAGTKLELK
As to B7, the IC50 (in general, the midpoint of a concentration-inhibition curve) in experiment [5] is 1.14 µg/mL; in experiment [6] it was 2.09 µg/mL; in experiment [7] it was 20.1 µg/mL; in experiment [8] it was 16.7 µg/mL.

B8: SC4.15 (antibody, V domains shown)
VH: EVQVVESGGDLVKPGGSLKLSCAASGFTFSTYGMSWVRQTPDKRLEWVATISSGGTYTYYPDSVKGRFKISRDNAKDTLYLQMSSLKSEDTAMYYCTRHDPNDGYYFLFAYWGQGTLVIVSA
VL: SIGRTQIPKFLPVSAGDRVTMTCKASQSVGNNVAWYQQKAGQSPKLLIYYASNRYTGVPDRFTGSGSGTDFTFTISSVQVEDLAVYFCQQHYSSPLTFGAGTKLELK
The molecule B8 registered a Kd in experiment [3] of 4.8 nM.

B9: SC4.15 (Murine mAb) (antibody, V domains shown)
VH: EVQVVESGGDLVKPGGSLKLSCAASGFTFSTYGMSWVRQTPDKRLEWVATISSGGTYTYYPDSVKGRFKISRDNAKDTLYLQMSSLKSEDTAMYYCTRHDPNDGYYFLFAYWGQGTLVIVSA
VL: SIGRTQIPKFLPVSAGDRVTMTCKASQSVGNNVAWYQQKAGQSPKLLIYYASNRYTGVPDRFTGSGSGTDFTFTISSVQVEDLAVYFCQQHYSSPLTFGAGTKLELK
In experiment [1], B9 yielded a Kd of 2.7 nM.

B10: E47.3 Ab (antibody, V domains shown)
VH: EVQLQQSGPELVKPGASVKISCTASGYTFTYFYMNWVKQSQGKSLEWVGQINPNNGGTAYNHKFRGKTTLTVDKSSNTAFMELRSLTSEDSAVYFCARWVGTHYFDYWGQGTTLTVSS
VL: DIVLTQSPASLPVSLGQRATISCRASQSVSSSSYTYIHWYQQKPGQPPKLLINFASNLESGVPARFSVSGSGTDFTLNIHPVEGEDTATYYCQHSWEIPPTFGGGTKLEIK
In the case of B10, the IC50 in experiment [5] is approximately 0.124 µg/mL; in experiment [6], approximately 0.0183 µg/mL; in experiment [7], 1.54 µg/mL; in experiment [8] it was approximately 0.0217 µg/mL.

B11: SC4.31 (antibody, V domains shown)
VH: QVQLQQPGAELVRPGASVKLSCKASGYTFTRDWMHWIKQRPGQGLDWIGTIHPYDSETHYNQNFKDKATLTVDKSSSTAYMQLSSLTSEDSAVYYCVTFIKTMVDTYYYAMDYWGQGTSVTVSS
VL: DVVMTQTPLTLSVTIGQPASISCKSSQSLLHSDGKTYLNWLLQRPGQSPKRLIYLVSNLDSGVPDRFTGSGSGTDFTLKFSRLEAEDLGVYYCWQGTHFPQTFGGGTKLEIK
For the molecule B11, in experiment [3], the Kd was determined as 11 nM.

B12: hSC4.47 (antibody, V domains shown)
VH: QVQLVQSGAEVKKPGASVKVSCKASGYTFTYFYMNWVRQAPGQGLEWVGQINPNNGGTAYAQKFQGRVTMTRDTSTSTVYMELSSLRSEDTAVYYCARWVGTHYFDYWGQGTTLTVSS
VL: EIVLTQSPATLSLSPGERATLSCRASQSVSSSSYTYIHWYQQKPGQAPRLLINFASNLESGIPARFSGSGSGTDFTLTISSLEPEDFAVYYCQHSWEIPPTFGGGTKLEIK
B12: the Kd in experiment [2] is more than 100 nM.
